Experiments:
[1] = molecular target: T1, complex of RQaQb on proteoliposomes (yeast (Saccharomyces Genome Database …, UniProt Q12255 1-253; Q12241 1-283; Q04338 1-217); experiment: liposome floatation (density gradient) with immunoblot; VML proteoliposomes with no SNAREs, single or several anchored SNAREs (1:2000 to lipid), 0.5 mM lipid, 1 µM added Sec17, Rb150, 0.04% defatted BSA, 1 mM MgCl2, 27°C 1 h; floated through Histodenz; bound Sec17 by Western blot; settings: both partners purified
T1 construct: Nyv1 (R SNARE), yeast, YLR093C; as m5; Vam3 (Qa SNARE), yeast, YOR106W; as m6; Vti1 (Qb SNARE), yeast, YMR197C; as m7; also called R, Qa, and Qb; source: purified SNAREs (Mima et al., 2008) reconstituted together into VML proteoliposomes; copies: + +
T1 sequence (Q12255 whole entry, chain 1 of 3): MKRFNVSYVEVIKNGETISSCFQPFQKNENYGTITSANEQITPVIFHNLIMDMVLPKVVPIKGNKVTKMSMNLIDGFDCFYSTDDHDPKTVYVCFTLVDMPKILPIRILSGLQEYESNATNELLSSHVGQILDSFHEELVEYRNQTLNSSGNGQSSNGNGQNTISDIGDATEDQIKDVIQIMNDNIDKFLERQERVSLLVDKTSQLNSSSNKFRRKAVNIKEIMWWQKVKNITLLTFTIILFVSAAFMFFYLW
T1 sequence (Q12241 whole entry, chain 2 of 3): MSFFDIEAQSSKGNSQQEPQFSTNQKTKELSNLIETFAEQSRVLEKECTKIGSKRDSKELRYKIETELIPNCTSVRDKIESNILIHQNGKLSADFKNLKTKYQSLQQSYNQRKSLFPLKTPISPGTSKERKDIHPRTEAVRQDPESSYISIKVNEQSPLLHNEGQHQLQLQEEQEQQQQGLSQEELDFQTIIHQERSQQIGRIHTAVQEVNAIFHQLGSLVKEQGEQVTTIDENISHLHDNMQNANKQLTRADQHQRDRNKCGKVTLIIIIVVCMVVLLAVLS
T1 sequence (Q04338 whole entry, chain 3 of 3): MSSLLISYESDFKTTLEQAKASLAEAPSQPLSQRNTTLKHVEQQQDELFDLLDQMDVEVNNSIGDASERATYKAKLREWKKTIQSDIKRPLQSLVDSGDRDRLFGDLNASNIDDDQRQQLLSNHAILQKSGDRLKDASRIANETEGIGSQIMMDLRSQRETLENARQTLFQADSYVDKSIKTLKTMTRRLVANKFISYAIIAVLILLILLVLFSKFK

[2] = molecular target: T2, His6-Sec18 (yeast (Saccharomyces Genome Database …, UniProt P18759 1-758)); experiment: liposome floatation (density gradient) with immunoblot; protein-free VML liposomes, 1 mM Mg:ATPyS, where indicated 1 µM Sec17, 250 nM Sec18, 2 µM Qc; Rb150, 27°C 1 h; floated through Histodenz; bound proteins by Western blot; settings: both partners purified
T2 construct: Sec18, yeast, YBR080C; construct from Haas and Wickner, 1996; also called Sec18/NSF; source: E. coli XL1 Blue/pQE9-His6-Sec18, purified (Ni-NTA, Superdex 200)
T2 sequence (looked up): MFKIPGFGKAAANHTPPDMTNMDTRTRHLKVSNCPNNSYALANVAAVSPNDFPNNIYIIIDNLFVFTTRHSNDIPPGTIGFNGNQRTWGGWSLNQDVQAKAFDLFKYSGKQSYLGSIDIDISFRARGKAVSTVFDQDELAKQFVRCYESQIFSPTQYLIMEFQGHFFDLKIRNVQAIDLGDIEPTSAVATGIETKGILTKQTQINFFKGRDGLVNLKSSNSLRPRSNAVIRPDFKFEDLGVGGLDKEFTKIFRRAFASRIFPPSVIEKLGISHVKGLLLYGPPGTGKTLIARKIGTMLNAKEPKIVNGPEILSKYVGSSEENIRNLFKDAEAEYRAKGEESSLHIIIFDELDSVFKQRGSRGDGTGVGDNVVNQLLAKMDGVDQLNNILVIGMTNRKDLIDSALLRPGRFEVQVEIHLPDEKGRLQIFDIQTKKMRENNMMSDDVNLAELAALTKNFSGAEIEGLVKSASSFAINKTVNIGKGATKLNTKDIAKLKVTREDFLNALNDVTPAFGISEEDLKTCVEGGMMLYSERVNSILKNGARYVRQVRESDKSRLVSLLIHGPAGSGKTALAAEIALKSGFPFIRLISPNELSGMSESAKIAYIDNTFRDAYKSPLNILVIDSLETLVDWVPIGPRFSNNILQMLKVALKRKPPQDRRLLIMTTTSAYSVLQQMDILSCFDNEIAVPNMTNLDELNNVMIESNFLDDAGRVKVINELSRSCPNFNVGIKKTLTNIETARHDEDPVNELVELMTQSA

binding result [1]: binds
binding result [2]: binds
B1: Sec17 (natural protein, UniProt P32602 1-292, looked up)
chain: MSDPVELLKRAEKKGVPSSGFMKLFSGSDSYKFEEAADLCVQAATIYRLRKELNLAGDSFLKAADYQKKAGNEDEAGNTYVEAYKCFKSGGNSVNAVDSLENAIQIFTHRGQFRRGANFKFELGEILENDLHDYAKAIDCYELAGEWYAQDQSVALSNKCFIKCADLKALDGQYIEASDIYSKLIKSSMGNRLSQWSLKDYFLKKGLCQLAATDAVAAARTLQEGQSEDPNFADSRESNFLKSLIDAVNEGDSEQLSEHCKEFDNFMRLDKWKITILNKIKESIQQQEDDLL
notes: Sec17, yeast, YBL050W; Plasmid from Schwartz and Merz, 2009; also called Sec17/SNAP; wild-type Sec17; source: E. coli Rosetta2(DE3), purified (chitin resin, DTT cleavage, dialysed into Rb150)

— publication PMC12766925, “Functional assembly of the Qc-SNARE with Sec18 and Sec17 on membranes” (Molecular Biology of the Cell, 2025)
